Results taken from the supplement of paper PMC10567573.
± gives the standard deviation.

Test: protein stability index of a GFP-peptide fusion (GPS, HEK-293T) (PSI 1-6); higher = more stable
Settings: c terminus: a fixed tail appended
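Note: 24-mer peptide tiles fused after GFP, lentivirally expressed, FACS-sorted into six equal bins by GFP/DsRed ratio, decoded by Illumina sequencing, PSI is the read-weighted mean bin number.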

| Sequence | protein stability index (treatment: DMSO) | protein stability index (treatment: MLN4924 1 uM, 8 h) |
| --- | --- | --- |
| QGPISTKELADFIRERATIEETYS [FCHO1] | 3.13 ± 0.21 | 3.26 ± 0.32 |
| QILYESCPKYKFISCPTCRRETVL [RNF208] | 2.15 ± 0.32 | 2.23 ± 0.28 |
| QLFFFHLFVGVDCFLLTAMAYDQF [OR3A1] | 3.13 ± 0.23 | 3.41 ± 0.16 |
| QLFSQIGPCKNCKMIMDTAGNDPY [TIA1] | 2.32 ± 0.1 | 2.45 ± 0.28 |
| QLHIFNTLRSHLIDKGMLTSTTED [CDS2] | 2.93 ± 0.2 | 3.09 ± 0.26 |
| QLIDPDENKENEAFEFKKPVRPVS [CDC25A] | 3.59 ± 0.41 | 4.03 ± 0.27 |
| QLIGSSNLFVMQVEMDIYTALKKW [GMCL1] | 2.57 ± 0.61 | 2.28 ± 0.81 |
| QLLADEKMKQLTEETEVLAHEIER [TRIM35] | 5.09 ± 0.46 | 5.21 ± 0.21 |
| QMLWELVLLGEPLVVMAPSPSESS [DENND6A] | 2.33 ± 0.72 | 2.17 ± 0.49 |
| QNLLREKIMKLPLPESLKAYLTYF [PCMTD1] | 2.49 ± 0.53 | 2.12 ± 0.36 |
| QPCSIVDVEFLPVYHPSPEESRDP [LPCAT4] | 4.84 ± 0.28 | 4.88 ± 0.38 |
| QQPGQDALAVKAGHGYDSKKQQEL [ZBED1] | 5.35 ± 0.22 | 5.21 ± 0.19 |
| QRCQKCSWSQYEMPEFSSDSTMRI [RTP4] | 2.36 ± 0.18 | 2.42 ± 0.16 |
| QRGHYRVARILIDLCSDVNVCSLL [RIPK4] | 2.9 ± 0.7 | 2.69 ± 0.28 |
| QSLAQPLPGNTTEATPRSLRASGS | 4.93 ± 0.33 | 5.13 ± 0.18 |
| QTESALSKKLRAILPKQSRKSMLD [LCOR] | 3.05 ± 0.098 | 3.14 ± 0.2 |
| QTLSPDMQGAYCTFPASVLAPVPT [DUSP5] | 3.51 ± 0.32 | 3.51 ± 0.21 |
| QTMAGSSPNTPQPVPEQSALCQGL [FAM104A] | 4.75 ± 0.19 | 4.84 ± 0.17 |
| QTQTVAAQAQALAAQAAAAAHAAQ [PI4K2A] | 4.33 ± 0.22 | 4.42 ± 0.19 |
| QVEKNKYDASAIDFSRCDMDGATL [ELF3] | 4.63 ± 0.23 | 4.58 ± 0.14 |
| QVLRFYAIWDDTDSMYGECRTYII [EFHC1] | 2.91 ± 1 | 2.58 ± 0.47 |
| QVQSMVVGEVLKDIETACKLLNIT [SPDEF] | 2.42 ± 0.36 | 2.39 ± 0.35 |
| RAGGWVSGEEFYMLTRRVLQLETV [PKD2L1] | 1.98 ± 0.14 | 2.5 ± 0.35 |

| Sequence | protein stability index (treatment: DMSO) | protein stability index (treatment: MLN4924 1 uM, 8 h) |
| --- | --- | --- |
| RASRTYELQNQLAACTRALESSEE [FSD1] | 5.01 ± 0.2 | 4.92 ± 0.26 |
| RDAAGKPQRPRSAPRTSSCAERLQ [FCHO1] | 4.75 ± 0.15 | 4.68 ± 0.098 |
| RDVKKTGFVFGTTLIMLLSLAAFS [RTN3] | 3.03 ± 0.43 | 3.19 ± 0.39 |
| REDILSCYDVYSPDKEEQLPFGPF [PKD2L1] | 4.09 ± 0.17 | 3.93 ± 0.23 |
| RESERRNHSLARHADILAAVETRL [FBXO28] | 3.71 ± 0.15 | 3.9 ± 0.27 |
| RFLLYTNENPNNFQILLLSDPSTI [PNLIPRP1] | 2.94 ± 1 | 2.57 ± 0.61 |
| RGDGGIYIGSIMKGGAVAADGRIE [DVL3] | 3.65 ± 0.18 | 3.75 ± 0.21 |
| RGKRGYSRGLHAWEISWPLEQRGT [SPSB2] | 2.88 ± 0.087 | 3.03 ± 0.41 |
| RGYPPPRDSYSSSSRGAPRGGGRG [RBMX] | 5.12 ± 0.36 | 5.3 ± 0.23 |
| RHDGYATNDGNHPSCQETRDYAPP [RBMY1A1] | 5 ± 0.31 | 4.93 ± 0.084 |
| RHRLITQVYLSHTAWTEACQVEVR [INTS4] | 2.37 ± 0.15 | 2.43 ± 0.51 |
| RIIYMLLITIATFQIAANLSMERY [SLC19A2] | 3.32 ± 0.31 | 2.91 ± 0.12 |
| RKLSSAVRSGIVEYLSLVKGGQDV [PRIM1] | 2.68 ± 0.36 | 2.77 ± 0.36 |
| RKPVEAESVEGVVRILLEHYYKEN [INTS4] | 2.35 ± 0.27 | 2.41 ± 0.5 |
| RKRKQSGHSPARAGKQRMKEKEQE [DDIT3] | 5.15 ± 0.34 | 5.51 ± 0.38 |
| RLRLQRTGGLGGERERQPCGDGNT [SOAT2] | 4.59 ± 0.099 | 4.49 ± 0.14 |
| RMNDLHYLNLDTWEWNELIPQGIC [KLHDC2] | 2.3 ± 0.58 | 2.31 ± 0.24 |
| RNQCRYCRLKKCFRAGMKKEAVQN [HNF4A] | 2.9 ± 0.33 | 3.19 ± 0.45 |
| RNQKGEQVFRLAFRSGALDLDSCS [MYORG] | 2.42 ± 0.33 | 2.48 ± 0.4 |
| RPLLQYVQDMGQEDMLLPLAWRIV [CCNC] | 2.44 ± 0.17 | 2.24 ± 0.31 |
| RPTPQDWLHRRAQILEILRRRPWA [ADAMTS4] | 2.63 ± 0.13 | 3.1 ± 0.48 |
| RQLEIMGKEVSGDQIEDMFEQGKW [STX11] | 3.73 ± 0.13 | 3.56 ± 0.2 |
| RQLYAVNRRLRALEEQGATWRHRE [FATE1] | 3.52 ± 0.3 | 3.56 ± 0.15 |

| Sequence | protein stability index (treatment: DMSO) | protein stability index (treatment: MLN4924 1 uM, 8 h) |
| --- | --- | --- |
| RQTVPPLTVRLHTQSVSECITEDG [PWWP2B] | 4.94 ± 0.11 | 4.7 ± 0.22 |
| RRERELERRELAVEQGERALERRR [ZBED3] | 5.03 ± 0.44 | 5.18 ± 0.63 |
| RRHLQFWKSHLKKVQKPLLQAPFL [RHOBTB1] | 2.14 ± 0.51 | 1.59 ± 0.26 |
| RRKDVCQAIDHGCEHICVNSDDSY [MATN2] | 4.34 ± 0.22 | 4.53 ± 0.33 |
| RRLGNGVSDDLSSEEDGEARTQMI [PHTF1] | 5.38 ± 0.2 | 5.21 ± 0.23 |
| RRLLSYCKGRDHGVLDALHVLEGL [ZSWIM9] | 2.03 ± 0.21 | 2.16 ± 0.3 |
| RRPSPVLRHLELLDEFARENIDSL [SCNN1D] | 3.31 ± 0.51 | 3.56 ± 0.38 |
| RRQCRPEIRMWQTREKAKFSDGEK [PHTF1] | 3.87 ± 0.29 | 4.23 ± 0.051 |
| RSCTPNAEVRHEIQDGTIHLYIYS [KMT2E] | 2.1 ± 0.33 | 2.57 ± 0.33 |
| RSEPIRPIDPAAWVSHTAAMTGTF [DVL3] | 2.99 ± 0.09 | 3.04 ± 0.23 |
| RSGGPPPKKSAPSAVARSNSWMGS [RBMY1A1] | 3.7 ± 0.27 | 3.64 ± 0.22 |
| RSSSESKLPSSGSGKRLSGVSSVD [RIPK4] | 5.03 ± 0.19 | 5.07 ± 0.26 |
| RTRRLGNMKNGANDVKHHRWFRSV [PRKX] | 3.17 ± 0.39 | 3.14 ± 0.38 |
| RTSPSCAFRSDDTKGHPRAVSQPF [CDC14A] | 3.57 ± 0.22 | 3.62 ± 0.37 |
| RTTVHDKSAHQTHSSWTPPNAQYW [DNAJC4] | 2.99 ± 0.32 | 3.02 ± 0.33 |
| RVFQNRFSTQYRCFSVSMLAGPND [UFD1] | 2.38 ± 0.34 | 2.3 ± 0.26 |
| RVLLTGLHAVADIHCENCKTTLGW [YPEL3] | 2.42 ± 0.69 | 2.27 ± 0.29 |
| RVVCGIDSSMILTVPGQALACGSN [NEK8] | 2.73 ± 0.12 | 2.52 ± 0.29 |
| RYEEANNNQYSEGVQREAQRIALR [KMT2E] | 4.3 ± 0.25 | 4.59 ± 0.2 |
| RYFSAWAEDDHMLIQNEYRNGGSL [WEE1] | 2.67 ± 0.5 | 2.32 ± 0.4 |
| RYLAVLESPIPEDKDRRFVFSYFL [EFHC1] | 2.37 ± 0.38 | 2.25 ± 0.85 |
| RYNRKYLMCGGIAFWSLVTLGSSF [SPNS1] | 2.68 ± 0.88 | 2.77 ± 0.96 |
| RYTQGTGGDEVDDSVSVNDIDLSL [ZC3H15] | 5.27 ± 0.29 | 4.89 ± 0.13 |

| Sequence | protein stability index (treatment: DMSO) | protein stability index (treatment: MLN4924 1 uM, 8 h) |
| --- | --- | --- |
| SAESSGCNSHMPYGYAAQARARER [KCNA4] | 4.43 ± 0.35 | 4.63 ± 0.2 |
| SAGRSMPEASDQEEHLSPLDFLHS [RNF180] | 5.07 ± 0.12 | 4.88 ± 0.28 |
| SAQAPPDSISLHQPCNPPAPAGDK [DMRTC1] | 5.38 ± 0.13 | 5.28 ± 0.28 |
| SASSTGDLPKAKTRAADLLVNPLD [SRPK2] | 4.97 ± 0.29 | 4.99 ± 0.33 |
| SCDLPEERYRHEIAHDGQRIYVLG [KLHDC10] | 3.81 ± 0.17 | 3.75 ± 0.25 |
| SCTVTTVQPMDRLPYQHFSAHFTS [TBX5] | 2.23 ± 0.15 | 2.31 ± 0.17 |
| SDDEMELEETEPPLEPEDALSDAE [P3H4] | 5.5 ± 0.27 | 5.59 ± 0.24 |
| SDDHIRVIVQLHKLRHLDISRDRL [ZER1] | 2.38 ± 0.18 | 2.53 ± 0.11 |
| SDEDDEEERRRRVFDVPIRRRRCS [FBXO3] | 5.41 ± 0.32 | 5.42 ± 0.27 |
| SDGRQDSPAGELPKTVQQPTESEP [MATN2] | 5.51 ± 0.24 | 5.57 ± 0.35 |
| SDPETKDFWLNMAALTEALQRQAE [FCHO1] | 3.29 ± 0.22 | 3.23 ± 0.32 |
| SDSVHIEDAEAVEQLREALHEALL [ESRRA] | 3.09 ± 0.42 | 3.29 ± 0.34 |
| SDTESTDLPSSTPVANSGTKPKTT [DLC1] | 5.47 ± 0.26 | 5.49 ± 0.22 |
| SDVHPVALNFMKGCLKMNPDDRLT [CDKL4] | 3.55 ± 0.27 | 3.49 ± 0.18 |
| SEEGQNGSSPKSKTKWTKEDGHRT [ADD1] | 5.36 ± 0.29 | 5.36 ± 0.23 |
| SFMDGYKQKNAYIGTQGPLENTYR [PTPN9] | 3.04 ± 0.16 | 2.92 ± 0.24 |
| SFQDNLHNRKKHLNGLQHLKAKKV [ZMAT5] | 3.51 ± 0.46 | 3.49 ± 0.23 |
| SGASPKESTNPEKAHETLHQSLSL [CDC25A] | 4.95 ± 0.12 | 4.83 ± 0.11 |
| SGYAGELGFRAFSGSGNRLDGKKK [UFD1] | 4.89 ± 0.069 | 4.74 ± 0.26 |
| SGYGFRPSMVSGGYVANSSNCISG [KRT71] | 2.82 ± 0.2 | 2.73 ± 0.16 |
| SHCSQLTTLSFYGNSISISALQSL [PRAME] | 2.87 ± 0.72 | 2.78 ± 0.58 |
